From PMC6221140

B1: SpoIID (natural protein)
chain: MKNPLVVLLGFVTCSVLVPSLITLVSYKNVELTEKPESPVSINKTIKKSDIEDKGNKEEKNTVNYETVNKKAPIINVYNHITGKTEKMDMENYLCGVLAGEMSSEFDIEALKAQSVAARTYVVYKQEHGKSSKHKNAVVCTDYKHCQEYKSYDTLKKLNGEEWIKNKYSKIQEAVRGTKGQIITYNDKAILPLYFSTSSGKTENSEEVFSAKYPYLKSVESPYDKYSPKFASTLKISNTDFVKSLRRAYSTIVIDVNNLSKQVSITKRSDAGTVEKIKLGNKELTGKDIRTVFKLNSANFDIKFGEGYIDFVVKGYGHGVGMSQWGAEGMAEEGYKYYDILSHYYTDTKIKDIY

Assays:
Experiment in all cases: two-hybrid; BACTH in E. coli BTH101 (cya); full length proteins fused to the C-terminus of T18 (pUT18C) or T25 (pKT25) of CyaA; blue colonies on X-Gal/IPTG plates, 30°C, 24 h, and β-galactosidase activity of liquid cultures in Miller units; biological duplicate
[1] = biological target: SpoIIIAH (Clostridium difficile)
[2] = biological target: SpoIIQ (Clostridium difficile)
[3] = biological target: SpoIIM (Clostridium difficile)
[4] = biological target: SpoIIP H142R (Clostridium difficile)

Molecule | β-galactosidase activity [1] | β-galactosidase activity [2] [MU] | β-galactosidase activity [3] [MU] | β-galactosidase activity [4] [MU]
SpoIIQ (natural protein) | 701 Miller Units | 743 | – | –
B1 | 656 MU | 761 | 699 | 229
